Measurements as given in patent US20100015170A1.

Key:
[1] = biological target: mouse Toll-like receptor 5 (mouse) (UniProt Q9JLF7); test: cell-based or functional assay
[2] = biological target: human Toll-like receptor 5 (human) (UniProt O60602); test: cell-based or functional assay
UniProt O60602, sequence (O60602 21-858): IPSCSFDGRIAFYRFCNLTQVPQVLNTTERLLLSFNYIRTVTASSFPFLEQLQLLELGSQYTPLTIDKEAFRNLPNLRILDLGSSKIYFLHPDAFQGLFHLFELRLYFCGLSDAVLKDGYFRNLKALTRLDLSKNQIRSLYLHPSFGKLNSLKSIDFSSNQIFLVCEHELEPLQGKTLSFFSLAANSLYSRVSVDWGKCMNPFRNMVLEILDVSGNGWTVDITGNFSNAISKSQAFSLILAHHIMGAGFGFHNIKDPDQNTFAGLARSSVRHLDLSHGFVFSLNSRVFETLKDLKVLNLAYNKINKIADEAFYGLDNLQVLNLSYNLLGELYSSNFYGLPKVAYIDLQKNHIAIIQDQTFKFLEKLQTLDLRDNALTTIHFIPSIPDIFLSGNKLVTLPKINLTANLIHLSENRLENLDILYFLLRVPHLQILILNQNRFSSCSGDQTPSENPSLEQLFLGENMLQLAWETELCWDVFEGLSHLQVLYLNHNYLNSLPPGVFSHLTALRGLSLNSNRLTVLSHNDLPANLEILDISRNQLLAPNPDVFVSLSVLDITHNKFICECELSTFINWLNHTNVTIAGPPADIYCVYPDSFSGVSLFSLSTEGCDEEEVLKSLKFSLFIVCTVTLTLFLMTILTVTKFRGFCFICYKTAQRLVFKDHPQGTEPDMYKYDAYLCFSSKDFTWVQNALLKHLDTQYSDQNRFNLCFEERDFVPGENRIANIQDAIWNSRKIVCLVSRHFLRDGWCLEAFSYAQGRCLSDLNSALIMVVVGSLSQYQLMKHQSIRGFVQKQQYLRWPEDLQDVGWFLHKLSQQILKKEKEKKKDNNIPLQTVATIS

UniProt Q9JLF7, sequence (Q9JLF7 27-859): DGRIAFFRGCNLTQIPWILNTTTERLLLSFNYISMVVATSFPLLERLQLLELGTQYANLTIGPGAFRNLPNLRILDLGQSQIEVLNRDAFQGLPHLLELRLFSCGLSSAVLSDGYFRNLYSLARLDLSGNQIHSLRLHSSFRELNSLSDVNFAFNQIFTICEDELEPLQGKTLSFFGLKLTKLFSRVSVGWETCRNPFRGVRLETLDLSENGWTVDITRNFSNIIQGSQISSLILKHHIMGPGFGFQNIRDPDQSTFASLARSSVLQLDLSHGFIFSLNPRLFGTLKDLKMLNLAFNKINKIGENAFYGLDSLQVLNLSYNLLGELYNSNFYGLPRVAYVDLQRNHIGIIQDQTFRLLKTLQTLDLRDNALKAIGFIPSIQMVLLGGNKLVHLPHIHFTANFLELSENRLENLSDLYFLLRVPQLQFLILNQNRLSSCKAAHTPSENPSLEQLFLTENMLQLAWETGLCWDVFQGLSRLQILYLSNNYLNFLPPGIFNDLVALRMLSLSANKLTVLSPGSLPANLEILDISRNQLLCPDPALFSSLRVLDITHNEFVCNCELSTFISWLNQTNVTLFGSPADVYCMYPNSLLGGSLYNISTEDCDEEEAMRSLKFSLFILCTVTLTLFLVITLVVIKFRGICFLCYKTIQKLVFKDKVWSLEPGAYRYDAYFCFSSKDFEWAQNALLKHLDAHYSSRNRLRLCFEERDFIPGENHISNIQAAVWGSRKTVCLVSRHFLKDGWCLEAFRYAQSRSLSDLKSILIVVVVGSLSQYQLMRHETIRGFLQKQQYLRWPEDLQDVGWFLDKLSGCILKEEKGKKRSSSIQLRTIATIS

Substance | TLR5-mediated NF-κB activation (luciferase, HEK293 cells with mouse TLR5) (fold lower than FliC WT) [1] | TLR5-mediated NF-κB activation (luciferase, HEK293 cells with human TLR5) (fold lower than FliC WT) [2]
recombinant mutant flagellin FliC L88A (from UniProt P72151 2-488) (ligand) | > 100 | > 100
recombinant mutant flagellin FliC R90A (from UniProt P72151 2-488) (ligand) | > 100 | > 100
